# Experiment: label from the status in PepcDB records
row,Sequence,protein production
1,SRRRRSGTEPEKIEPGEGASRSRRDMLKDGGQQGLGTGARDPDKATRFRMEELRLTSTTFALTGDSAHNQAMVHWSGHNSSVILILTKLYDYNLGSITESSLWRSTDYGTTYEKLNDKVGLKTILSYLYVCPTNKRKIMLLTDPEIESSLLISSDEGATYQKYRLNFYIQSLLFHPKQEDWILAYSQDQKLYSSAEFGRRWQLIQESVVPNRFYWSVMGSSKEPDLVHLEARTVDGHSIYLTCRMQNCTEANRNKPFPGYIDPDSLIVQDDYVFVQLTSGGRPHYYVSYRRSPFAQMKLPKYALPKDMHVISTDENQVFAAVQEWNQNDTYNLYISDTRGVYFTLALENVQSSRGPEGNVMIDLYEVAGIKGMFLANKKIDNQVKTFITYNKGRDWRLLQAPDADLRGDPVHCLLPYCSLHLHLKVSENPYTSGIIASRDTAPSIIVASGNIGSELSDSDISMFVSSDAGNTWRQIFEEEHSILYLDQGGVLVAMKHTSLPIRHLWLSFDEGRSWSKYSFTSIPLFVDGVLGEPGEETLIMTVFGHFSHRSEWQLVKVDYKSIFDRRCAEEDYRPWQLHSQGEACIMGAKRIYKKRKSERKCMQGKYAGAMESEPCVCTEADFDCDYGYERHSNGQCLPAFWFNPSSLSKDCSLGQSYLNSTGYRKVVSNNCTDGVREQYTAKPQKCP,not failed
2,SRVLSRMSGTIRHFQAITLALSRERDLERMLDGVLSHLVEAAGGDAGGVYLYDAEQALLRLAASCRGEHYPSELAVDESARQHLAATVTQALSLHERSLAVVLNDRSQALLGILVLQMGEEQAQERVGEAFRRFVEELSGVAAVAIETRQLVEAQQRLLDA,failed
3,SSEDLAKQLASYKAQLQQVEAALSGNGENEDLLKLKKDLQEVIELTKDLLSTQPSETLASSDSFASTQPTHSWKVGDKCMAVWSEDGQCYEAEIEEIDEENGTAAITFAGYGNAEVTPLLNLKPVEEGRKAKEDSGNKPMSKKEMIAQQREYKKKKALKKAQRIKELEQEREDQKVKWQQFNNRAYSKNKKGQVKRSIFASPESVTGKVGVGTCGIADKPMTQYQDTSKYNVRHLMPQ,failed
4,SSEQIRRAPKVLLHDHLDGGLRPGTIVELARDAGYSGLPETDPDKLGIWFREAADSGSLERYLETFAHTCAVMQTRAALVRVAAECAEDLAADGVVYAEVRYAPEQHLEAGLSLEEVVEAVNEGFRAGERRAKEDGNRIRVGALLTAMRHAARALEIAELANRYRDAGVVGFDIAGAEAGFPPTRHLDAFEYLKRENNHFTIHAGEAFGLPSIWQALQWCGADRLGHGVRIIDDIQVREDGSVKLGRLASYVRDKRIPLELCPSSNLQTGAASSYADHPIGLLRRLHFRATVNTDNRLMSGTSMSREFEHLVDAFGYTLDDMAWFSVNAMKSAFIPFDERLAMINDV,failed
5,SSLRPSPRLLCTATKQKNSGQNLEEDMGQSEQKADPPATEKTLLEEKVKLEEQLKETVEKYKRALADTENLRQRSQKLVEEAKLYGIQAFCKDLLEVADVLEKATQCVPKEEIKDDNPHLKNLYEGLVMTEVQIQKVFTKHGLLKLNPVGAKFDPYEHEALFHTPVEGKEPGTVALVSKVGYKLHGRTLRPALVGVVKEA,failed
6,SSPFPIPNTQYPISNPQFNRWLVPMAGGPNARIAIKLLPALVTLSDDPQIRLTRVFKPWEFRPDMTVLEQAIRQLMRRRQLSSTVIAAPVQADSVVEGVIKLVETEGYDVVVLGASREGLLQQAIQGNIPEAIASGVDSTVILVR,failed
7,SSSDIAYIYVNNKKSYLKDKKVRQALTYGLDRKKYVDTALQGYGSVANVPIAPVSWAYTEEGINKYPHDVEKAKKLLDEAGWKVGSDGVREKDGQKLKLTYYASNTGKTNDIFIPIAKESYKEIGVELNPELMDFNTMLSKVGKGDYDLAAVSTPGISDPSEVVSDYLSTNPKSDTGYSNPKVDDLIVKGIGTTDIEKRKAIYKELYKELSDDPPVILLNYRK,failed
8,STGKKPKHHVLSHDIIPASKPIAEKLQIQPESPVVELKRILYNDDQPLTFEVTHYPLDLFPGIDTFIADGVSMHDILKQQYKVVPTHNTKLLNVVYAQQEESKYLDCDIGDALFEIDKTAFTSNDQPIYCSLFLMHTNRVTFTINSPYT,not failed
9,STISILATSDIHGNVLNYDYATGKAPTNTQGLAKVSSYVNSVRASKPNVMLIDDGDTIQGTPLSYYYDKIDTTSEYPLMKIMGAMKYDTWTLGNHEFNYGLPTLNRVISDARKENINVLSANTYNSDNTNFVNPYYIKTFNINGKTVNVGILGLTTKCIPDWEDPSHYAGLHFNDLVDEAKLWVPRMKAAGANVVIVAAHSGEEGAADTIPENQIKAIATNVSGIDAIVAGHAHVTVNDTSLKNPNGKTVPVVEPNKWGTFVSQIDITLDNSGNASTINTQNVKMTDSIPEDPNIVNIIQPYQNKTLDYIST,failed
10,STSPEIASLSWGQMKVKGSNTTYKDCKVWPGGSRTWDWRETGTEHSPGVQPADVKEVVEKGVQTLVIGRGMSEALKVPSSTVEYLKKHGIDVRVLQTEQAVKEYNALVAQGVRVGGVFHSTC,not failed
11,SVDLAHIRQVRAEADCLFNNDEVEAAIGRVAEAINRDLGETNPVVFCVMNGGLIFSGKLLPLLDFPLELSYLHATRYRNETSGGELFWKAKPEISFIDRDVLIIDDILDEGHTLSAIIDFCKHAGARAVHTAVLVDKEHERKARPDLKASFTGLYCADRYVFGYGMDYKGYWRNA,failed
12,SVNAATVDLRIMETTDLHSNMMDFDYYKDAATEKFGLVRTASLIEQARAEVKNSVLVDNGDVIQGSPLGDYMAAKGLKEGDVHPVYKAMNTLNYAVGNLGNHEFNYGLDFLHKALAGAKFPYVNANIIDAKTGKPMFTPYLIQDTRVVDSDGQIHTLRIGYIGFVPPQIMTWDKANLNGKVTVNDITETARKYIPEMRAKGADVVVVVAHSGLSADPYQAMAENSVYYLSQVPGVDAIMFGHAHAVFPGKDFANIKGADIAKGTLNGVPAVMPGMWGDHLGVVDLVLNNDSGKWQVTQSKAEARPIYDAVAKKSLAAEDGKLVSVLKADHDATREFVSK,not failed
13,SWLYGKSDARWTITEYADLECPYCRTYTPQLMQWIDGQTDVNLVWHHFPLQMHGAATLKEARLVQCAGKLGGGKAFWNAIDQVLKHTRGDGQGLVTSIALSGIDAVVLDRCATLDADVALHVDQQLQLAQQAGVTATPTIKITDTQTRHSVRLEGPVDEVSILSAMDRLAFESK,failed
14,SYETSQHNLDAVEAVLSRLQKQTGEMAAYMVPVGYRALCVSQRESMQALRCSFVQGQSQPLLRGASSKVMLAYMPAARCEKILRYFGEDPTLDKWQSEFEKIRRHGYAVSTSEIDPGVSGISAPVMKGSKLIGAISVMAPAHRVESNKQRIILHVLQAARAL,not failed
15,SYTEVRELVNFVCRYLFGHIPRRPVGIFGAELGNYLVSHFSSTWDVHHPKNGEMKRMINTTTSLCFASSAEEAGVPPSDVLRLLPTNMIIFANPGHVFVRLSENGIETPIWIGDVNCDENYQSVPEYVVRTAAIRAEPCSNLGAAGKSVLVGKKPLLTNDKAALEMVNTMYSPLAREKCDDINANLSHLREMYPFRFVYKPSSAQTFSGVEFSQTRFGSSKSRPDLQTMDVIKYLSSQQVSSSSSPSFTYSSINDQMRYSPRF,not failed
16,SYTFDTTDHKSPCCNFQWYIFRKQGESRIITCELFGVIVSLENRWDWLEFMIDDSLQLTAFRCPKRDKLGMETLLQLGDVAQVTGNWKLSNGAFLNATKIAIHNNPDVECKYWLQQIQKYKSKVCELEIPSDWIRRQQRAHNLKTDAVLSFSAQVSTAAATCWKLWKKHFNQGGKISLQRLWEVIQRENCPKMQELSSCRRNQIVQLLIHLGYLIPLSKEPETYVLLIDDILDKQVMQIFNQNIASKTLSLREVAYRLEEYFHVEEISLERVEESILRLAYKEKVEQV,not failed
17,TAANAVASRVGAPLGHDYAVLSLSDRLKPWDVVAQRISAVASADMAFAVYNPASKSRTWQVAAMRDLVLEHRSPDTPVIIGRDVAGAQESVRVVRLADLDPAEIDMRCLLIVGSSMTTVVENEHGTRVFTPRRYPG,failed

# From a protein production outcome set (Wang et al. 2014)
